Source: publication PMC11371640, “Structural deficits in key domains of Shank2 lead to alterations in postsynaptic nanoclusters and to a neurodevelopmental disorder in humans” (Molecular Psychiatry, 2022)

B1: His6-SUMO-tagged SH3 to PDZ domains of Shank2 (R520-D727), WT [not stated (human or rat cDNA cloned)] / synthetic peptide of the complete PDZ ligand of GKAP (last 15 amino acids of GKAP/SAPAP1) [not stated] (parent)
chain 1: RKLYSAVPGRLFVAVKPYQPQVDGEIPLHRGDRVKVLSIGEGGFWEGSARGHIGWFPAECVEEVQCKPRDSQAETRADRSKKLFRHYTVGSYDSFDTSSDCIIEEKTVVLQKKDNEGFGFVLRGAKADTPIEEFTPTPAFPALQYLESVDEGGVAWQAGLRTGDFLIEVNNENVVKVGHRQVVNMIRQGGNHLVLKVVTVTRNLDPDD
chain 2: ADSIEIYIPEAQTRL

Variants of: B1
Experiment: ITC
Conditions: with synthetic peptide of the complete PDZ ligand of GKAP (last 15 amino acids of GKAP/SAPAP1); parent: 1

First: chain 1 RKLYSAVPGRLFVAVKPYQPQVDGEIPLHRGDRVKVLSIGEGGFWEGSARGHIGWFPAECVEEVQCKPRDSQAETRADRSKKLFRHYTVGYYDSFDTSSDCIIEEKTVVLQKKDNEGFGFVLRGAKADTPIEEFTPTPAFPALQYLESVDEGGVAWQAGLRTGDFLIEVNNENVVKVGHRQVVNMIRQGGNHLVLKVVTVTRNLDPDD [chain 1 S91Y]
Second: chain 1 RKLYSAVPGRLFVAVKPYQPQVDGEIPLHRGDRVKVLSIGEGGFWEGSARGHIGWFPAECVEEVQCKPRDSQAETRADRSKKLFRHYTVGSYDSFDTSSDCIIEEKTVVLQKKDNEGFGFVLRGAKADTPIEEFTPTPAFPALQYLESVDEGGVAWQAGLRTGDFLIEVNSENVVKVGHRQVVNMIRQGGNHLVLKVVTVTRNLDPDD [chain 1 N171S]
The ratio to parent of the first is higher: 2.8 for the first, 1.3 for the second.

chain 1 RKLYSAVPGRLFVAVKPYQPQVDGEIPLHRGDRVKVLSIGEGGFWEGSARGHIGWFPAECVEEVQCKPRDSQAETRADRSKKLFRHYTVGSYDSFDTSSDCIIEEKTVVLQKKDNEGFGFVLRGAKADTPIEEFTPTPAFPALQYLESVDEGGVAWQAGLRTGDFLIEVNNENVVKVGHRQVVNMIRQGGNHLVLKVFTVTRNLDPDD [chain 1 V198F] gave a ratio to parent of 2.6.
